In PMC11969024 (2025):

B1: peptide HD2 (from tick evasin EVA4) / CXCL11 (biotinylated, synthetic) (parent complex)
chain 1: EEDDYTAYAPLTCYFT
chain 2: FPMFKRGRCLCIGPGVKAVKVADIEKASIMYPSNNCDKIEVIITLKENKGQRCLNPKSKQARLIIKKVERKNF
B2: peptide HD2 (from tick evasin EVA4) / CXCL14 (biotinylated, synthetic) (parent complex)
chain 1: EEDDYTAYAPLTCYFT
chain 2: SKCKCSRKGPKIRYSDVKKLEMKPKYPHCEEKMVIITTKSVSRYRGQEHCLHPKLQSTKRFIKWYNAWNEKRRVYEE

Variants of: B1

Variant | enrichment
chain 1 EEGDYTAYAPLTCYFT [chain 1 D3G] | -4.59 log2 (difference from the parental peptide)
chain 1 EEDDYEAYAPLTCYFT [chain 1 T6E] | 3.52 log2 (difference from the parental peptide)
chain 1 EEDDYLAYAPLTCYFT [chain 1 T6L] | 3.05 log2 (difference from the parental peptide)
chain 1 EEDDYVAYAPLTCYFT [chain 1 T6V] | -0.999 log2 (difference from the parental peptide)
chain 1 EEDDYTAYATLTCYFT [chain 1 P10T] | -0.0022 log2 (difference from the parental peptide)
chain 1 EEDDYTAYAALTCYFT [chain 1 P10A] | -0.641 log2 (difference from the parental peptide)
chain 1 EADDYTAYAPLTCYFT [chain 1 E2A] | -2.47 log2 (difference from the parental peptide)
chain 1 EWDDYTAYAPLTCYFT [chain 1 E2W] | 1.67 log2 (difference from the parental peptide)
chain 1 ENDDYTAYAPLTCYFT [chain 1 E2N] | -4.96 log2 (difference from the parental peptide)
chain 1 EEDDYTAYAPLTCYIT [chain 1 F15I] | -3.39 log2 (difference from the parental peptide)
chain 1 EEDDYTAYAPLTCYWT [chain 1 F15W] | -6.32 log2 (difference from the parental peptide)
chain 1 EEDDYTAYAPLTCYDT [chain 1 F15D] | -1.93 log2 (difference from the parental peptide)
chain 1 EEDDYTAYAPLTCYPT [chain 1 F15P] | -3.5 log2 (difference from the parental peptide)
chain 1 EEDDYTAYAPLTCYKT [chain 1 F15K] | -4.14 log2 (difference from the parental peptide)
chain 1 EEDDYTALAPLTCYFT [chain 1 Y8L] | -0.881 log2 (difference from the parental peptide)
chain 1 EEDDYTAYAPLTHYFT [chain 1 C13H] | -5.78 log2 (difference from the parental peptide)
chain 1 EEDDYTAYAPLTTYFT [chain 1 C13T] | -3.56 log2 (difference from the parental peptide)
chain 1 EEDDYTAYAPLTSYFT [chain 1 C13S] | -1.17 log2 (difference from the parental peptide)
chain 1 EEDDYTAYYPLTCYFT [chain 1 A9Y] | -4.48 log2 (difference from the parental peptide)
chain 1 EEDDYTAYGPLTCYFT [chain 1 A9G] | -1.08 log2 (difference from the parental peptide)
chain 1 EEDDYTAYFPLTCYFT [chain 1 A9F] | -0.826 log2 (difference from the parental peptide)
chain 1 EEDDYTAYSPLTCYFT [chain 1 A9S] | -0.211 log2 (difference from the parental peptide)
chain 1 EEDDYTAYPPLTCYFT [chain 1 A9P] | 0.549 log2 (difference from the parental peptide)

Variant | enrichment
chain 1 EEDDYTAYAPFTCYFT [chain 1 L11F] | 2.94 log2 (difference from the parental peptide)
chain 1 EEDDYTYYAPLTCYFT [chain 1 A7Y] | 2.5 log2 (difference from the parental peptide)
chain 1 EEDDYTIYAPLTCYFT [chain 1 A7I] | 1.35 log2 (difference from the parental peptide)
chain 1 EEDDYTAYAPLCCYFT [chain 1 T12C] | -5.77 log2 (difference from the parental peptide)
chain 1 EEDDYTAYAPLNCYFT [chain 1 T12N] | -0.502 log2 (difference from the parental peptide)
chain 1 MEDDYTAYAPLTCYFT [chain 1 E1M] | 0.144 log2 (difference from the parental peptide)
chain 1 HEDDYTAYAPLTCYFT [chain 1 E1H] | -5.11 log2 (difference from the parental peptide)
chain 1 QEDDYTAYAPLTCYFT [chain 1 E1Q] | 2.79 log2 (difference from the parental peptide)
chain 1 WEDDYTAYAPLTCYFT [chain 1 E1W] | 1.25 log2 (difference from the parental peptide)
chain 1 TEDDYTAYAPLTCYFT [chain 1 E1T] | -1.21 log2 (difference from the parental peptide)
chain 1 SEDDYTAYAPLTCYFT [chain 1 E1S] | -1.7 log2 (difference from the parental peptide)
chain 1 GEDDYTAYAPLTCYFT [chain 1 E1G] | -4.38 log2 (difference from the parental peptide)
chain 1 FEDDYTAYAPLTCYFT [chain 1 E1F] | -0.271 log2 (difference from the parental peptide)
chain 1 EEDDYTAYAPLTCYFK [chain 1 T16K] | -4.41 log2 (difference from the parental peptide)
chain 1 EEDDYTAYAPLTCYFW [chain 1 T16W] | 0.43 log2 (difference from the parental peptide)
chain 1 EEDDYTAYAPLTCYFN [chain 1 T16N] | -3.84 log2 (difference from the parental peptide)
chain 1 EEDDYTAYAPLTCYFA [chain 1 T16A] | -0.756 log2 (difference from the parental peptide)
chain 1 EEDDHTAYAPLTCYFT [chain 1 Y5H] | -0.00324 log2 (difference from the parental peptide)
chain 1 EEDDYTAYAPLTCLFT [chain 1 Y14L] | -3.92 log2 (difference from the parental peptide)
chain 1 EEDDYTAYAPLTCAFT [chain 1 Y14A] | -7.18 log2 (difference from the parental peptide)
chain 1 EEDDYTAYAPLTCWFT [chain 1 Y14W] | -6.01 log2 (difference from the parental peptide)
chain 1 EEDQYTAYAPLTCYFT [chain 1 D4Q] | -3.62 log2 (difference from the parental peptide)
chain 1 EEDYYTAYAPLTCYFT [chain 1 D4Y] | -4.43 log2 (difference from the parental peptide)

Variants of: B2

Variant | enrichment
chain 1 EEDDYTAYFPLTCYFT [chain 1 A9F] | 0.278 log2 (difference from the parental peptide)
chain 1 EENDYTAYAPLTCYFT [chain 1 D3N] | 1.21 log2 (difference from the parental peptide)
chain 1 EEDDYTAYAQLTCYFT [chain 1 P10Q] | -4.65 log2 (difference from the parental peptide)
chain 1 EEDDYTYYAPLTCYFT [chain 1 A7Y] | 2.89 log2 (difference from the parental peptide)
chain 1 EEDDYTAYAPATCYFT [chain 1 L11A] | 0.339 log2 (difference from the parental peptide)
chain 1 ENDDYTAYAPLTCYFT [chain 1 E2N] | 0.243 log2 (difference from the parental peptide)
chain 1 EEDDYTAYAPLTCYHT [chain 1 F15H] | -4.57 log2 (difference from the parental peptide)
chain 1 EEDDYTAYAPLTCYVT [chain 1 F15V] | 0.451 log2 (difference from the parental peptide)
chain 1 EEDDMTAYAPLTCYFT [chain 1 Y5M] | -5.9 log2 (difference from the parental peptide)
chain 1 VEDDYTAYAPLTCYFT [chain 1 E1V] | -5.63 log2 (difference from the parental peptide)
